# Data taken from patent US20180201654A1, “PEPTIDE INHIBITORS OF HAUSP DEUBIQUITINASE” (priority 2012, published 2018).
# B1: vIRF4^153-216 (protein)
# chain: SDTREQSYEEAGAAAPAPPKAPSGLRGRPRKSNRYYNVGDITTEQKAACSVWIPVNEGASTSGM
# B2: vIRF4^153-256 (protein)
# chain: SDTREQSYEEAGAAAPAPPKAPSGLRGRPRKSNRYYNVGDITTEQKAACSVWIPVNEGASTSGMGSSGTRQVTQASSFTWRVPGDPPAPSTLTGPSDPHSSGAG
# Key:
# [1] = molecular target: T1, HAUSP TRAF domain HAUSP^62-205 (Homo sapiens, UniProt Q93009); assay: Size exclusion chromatography of complex formation in excess MDM2^137-152; assay type: binding; set-up: hexahistidine tag (TEV-cleavable) (cleaved yes); made in house; host or cells: E. coli BL21 (DE3) RIPL; conditions: in the presence of a 5-fold molar excess of MDM2^137-152
# T1 sequence (Q93009 62-205): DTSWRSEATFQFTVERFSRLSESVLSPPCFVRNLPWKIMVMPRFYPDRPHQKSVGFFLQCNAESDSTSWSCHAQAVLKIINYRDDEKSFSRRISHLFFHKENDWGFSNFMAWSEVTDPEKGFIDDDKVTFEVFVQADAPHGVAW
# [2] = molecular target: T1, HAUSP TRAF domain HAUSP^62-205; assay type: binding; set-up: All residues of HAUSP^62-205, with the exception of Asp^62, are included in the final model; hexahistidine tag (TEV-cleavable) (cleaved yes); made in house; host or cells: E. coli BL21 (DE3) RIPL; conditions: for Ka / TΔS / ΔG: ITC, 20° C., pH 7.0
# Experimental: FIG. 5. Typical isothermal titration calorimetric measurements of the interactions between the HAUSP TRAF domain and the vIRF4 protein derivatives or other peptides. Purified proteins and synthesized peptides were reconstituted in 150 mM NaCl and 10 mM HEPES (pH 7.0). The calorimetric assays were performed using a VPITC system. All experiments were carried out with a stirring speed of 300 rpm at 20° C., and the thermal power was recorded every 10 s. Data were analyzed using the ORIGIN software package (version 7.0). […] Each titration against the HAUSP TRAF domain is indicated in each panel.
# Purified proteins and synthesized peptides (Peptron Inc., Deajeon, Korea) were reconstituted in 150 mM NaCl and 10 mM HEPES (pH 7.0). The calorimetric assays were performed using a VP-ITC system (MicroCal Inc., Northampton, Mass.). Samples were degassed by vacuum aspiration for 15 min prior to loading. All experiments were carried out with a stirring speed of 300 rpm at 20° C., and the thermal power was recorded every 10 s. Data were analyzed using the ORIGIN software package (version 7.0) supplied with the instrument. […] (SEQ ID NO: 6); EBNA1^435-449, […] (SEQ ID NO: 7); MDM2^137-152, […] […] (SEQ ID NO: 10). Each set of ITC experiments was repeated two or three times.
Molecule,complex formation with the TRAF domain [1],TRAF binding affinity (in words) ([2]; ITC comparison),Ka [2],TΔS [2] [kcal/mol],ΔG [2] [kcal/mol]
B1,formed a stable complex,comparable TRAF binding affinity,1.84 ± 0.10 10^6 M^−1,-7.35,-8.41
B2,–,–,13.20 ± 0.85 10^6 M^−1,-10.05,-7.64
